{"source": "the domain aggregation screens of Martell et al. (2025)"}
{"test": "soluble fraction after stress (log2 fold change); higher = more stays soluble; pooled small domains, quantitative proteomics", "settings": "stress: 75 degC"}
{"sequence": "HMNASTVTLENFEGAKYDDVYGKYDYQFSVTYEQTDKYESGVIISQKPEAGTKIIKGSQVSLVVAT", "soluble fraction (log2)": 0.115}
{"sequence": "HMNASVIADLFRQTGASVMIHGHTHRPDIHALEANGDAAFRAVLGAWHTEGSMIRVTQDDVTLIAFP", "soluble fraction (log2)": 0.0461}
{"sequence": "HMNATLEQLTQREREIAVLMAEGLTNAQIGSRLNVSMASVKAHLSHIFTKLGVDNRVSAAMMVL", "soluble fraction (log2)": -0.868}
{"sequence": "HMNATPDMERYWASSAAEGRALEPLYAVSRGDGGEPLWWSPSRAQAERMAREEGGPLTVDRIDPP", "soluble fraction (log2)": 0.113}
{"sequence": "HMNAVYAEERRAYILAALEKRGTVHSYELAEQMGVSRETIRRDIMELSNRGLLVKTHGGAIST", "soluble fraction (log2)": -1.45}
{"sequence": "HMNAYEVLIPNIYIGQRVDQTLASLFPQFSRSRLQNWLARGNLLIDGEIIKPKTKVLGGEQIIILDT", "soluble fraction (log2)": -1.72}
{"sequence": "HMNDAEEKAEAIEGVKNFMANMEKTDIDFKSKESVLLEQVEEIRKNYPVAQWPVIVKQLYNNIGRL", "soluble fraction (log2)": -0.0997}
{"sequence": "HMNDIDKFVAALVDQDTMAGTNRAFDENDIQTMKNMSSIEDVKQYAVANGLSSGKVNNALISAGL", "soluble fraction (log2)": 0.234}
{"sequence": "HMNDIQIILQEAVARLPKKQQLVFNMKYFDHLKYQEISEILGTSVGGLKASYFQAVKKIENYIINKH", "soluble fraction (log2)": -2.27}
{"sequence": "HMNDRLFQILYLLLEKGTMTAPELSRALEVSVRTIYRDIDALSLAGVPVYATQGKNGGVSLLPNY", "soluble fraction (log2)": -2.46}
{"sequence": "HMNDTLQEYFEALERLKSNNPINVPKNTKINNDSVALEAGRKRGSIKKSREIFAELIEAINNAS", "soluble fraction (log2)": -0.303}
{"sequence": "HMNDVEAIDDALKDLHKVSPDLAALVEMKFFGGMTEPEISEILGVSERTVRREWEKARAALLVLLE", "soluble fraction (log2)": -1.63}
{"sequence": "HMNDVHELPYSSFIEMVERGHVISVTVKHINIEFESTKNENYRTIAPQAMTPPYLELLLKNKDSVKVTFLP", "soluble fraction (log2)": -1.98}
{"sequence": "HMNDVLVGAIPESASGSRLDKVMPSVFPPYSRSQLQVWLKQGRILMGNGIPSPRLIVSGGEVLSLVVPELP", "soluble fraction (log2)": -1.02}
{"sequence": "HMNEDFSEIIAAVKKFAVDNLSLSTLSDEELEEQIKTITDNMIGNRYVSIKNRVDIAQQVFSSIR", "soluble fraction (log2)": -0.291}
{"sequence": "HMNEMEFAQRLRQFRKAKNLTQQELADRLGVSNKSVSRWESGSYPDVGTLVALARALGVTVDELLDPKA", "soluble fraction (log2)": -0.00291}
{"sequence": "HMNEMEWVAKLIDQLPERERMILQLREIEQYEFDQIASLMEIPEGTVRVYLSRIRKKIKKQFIEIQSH", "soluble fraction (log2)": 0.0404}
{"sequence": "HMNENFPYRLKEMVVVQSRTWPGINKPGGVGQVMKINPEAGTVNVKYVLGGSEKNIELKYVTSNDLNSK", "soluble fraction (log2)": -0.489}
{"sequence": "HMNENYNLSKREKEVLDLLVNGKSYKVIATELAISYETVHSHIKKIYHKLHVSSIGEAVSKTIKQKIL", "soluble fraction (log2)": -3.11}
{"sequence": "HMNEPITIALREAEEAANKILNEGVHSVELSPQNGYVRRLQHELIARYGLTSASRGSDPSRRVSVGAN", "soluble fraction (log2)": -0.295}
{"sequence": "HMNEQKVSSLLTPRQLAFIDEYLIDFNGAQAAIRAGYSHKTAGPQAARLLVNVNISRMIAERIEARNK", "soluble fraction (log2)": -2.5}
{"sequence": "HMNEQVAVVSGSQVNVRSGPGTTSAVVGQVSKGDNLPVLNQSGDWYQIKLPGGNAGWVAGWLVSLRPTT", "soluble fraction (log2)": 0.0105}
{"sequence": "HMNESPVLAVLTPTERKVASLVAEGLTNQAIAARMILAEGTVKNHVSTLLHKLQAPDRTALALTLYKAFQ", "soluble fraction (log2)": -1.3}
{"sequence": "HMNETRVDQAADLLLALLEKEPKSAAEILDEFEQAGFSKSGLYRAKDALGVVSIRKEGRWVWSLPHSLD", "soluble fraction (log2)": 0.438}
{"sequence": "HMNEYIVSAEQEGMRLDVFLTEQMEGSRSYIQSLIKGGHVTVGDKVGKANLRLTPDTVIHVEIPEPE", "soluble fraction (log2)": 0.0133}
{"sequence": "HMNEYLPEAVQKLLEVMEYDIPYTSNELMERLGLKAKEGFRRNYLHPAMEMKLIQMTIPDKPNSRNQRYLR", "soluble fraction (log2)": -2.13}
{"sequence": "HMNFHLEHHIAELLYRSIRGELSDFERQELNQWRSDSPMHETLFMRLQDDEYIDEELGVFIK", "soluble fraction (log2)": -2.76}
{"sequence": "HMNFKNMIDSLSGILFKKDPSAAIIDIGGVRLKVFITVGSYEQLPAKGEQVEILTYLHVKEDILNLYG", "soluble fraction (log2)": -1.85}
{"sequence": "HMNFMDGFQSFFQESGAMNRPMTADVVSYRLPDGTVQQGNSTMRGLMDQYLKSIGQSPTTGVP", "soluble fraction (log2)": 0.0171}
{"sequence": "HMNFRESVLAVFENSKQKYLDFDEIAKRLGLTRGFDRQALASMLNELTRNDEIVFTKRNKYTLPEN", "soluble fraction (log2)": -0.524}
{"sequence": "HMNGAVAEQARKQLMAALKASEFIAEEKLDEWLDALALPEDKRTAIVDAVDELDYEEAISELEN", "soluble fraction (log2)": 0.429}
{"sequence": "HMNGDYFEYRYAVNGSRSTPPSLSKTSRNPSGWSTTVPTVGNLQYLWFTVAKINGETNSLIQNWSTPARQT", "soluble fraction (log2)": -1.88}
{"sequence": "HMNGEAQTMYVTARTLNVRKGPGTSYAKAGTLSRGTAVQVVGFSGNWAKLSNGYYVSTSYLAKI", "soluble fraction (log2)": -4.25}
{"sequence": "HMNGKWKLRIIKELLHSNIRFGQILKNIPDISPKVLSQQLKEMEEDGIIERIVISEMPPNVEYVLTDMGE", "soluble fraction (log2)": -1.66}
{"sequence": "HMNGLNISYRMDGENVVETIVFPDATMIRTIAPNGVMTIKTIEDGSVSTSELKADYKLYKKIYESQY", "soluble fraction (log2)": -0.748}
{"sequence": "HMNGSVLVTGGSVWIRAGASKETDGLGIVHKGDVLKRSGSDASGWRGVVYEGQNAFISAKYSSI", "soluble fraction (log2)": -0.89}
{"sequence": "HMNGTEAIRRYIDQFASKHATTPRMLKLNERKQLIQELKNNGLLEIKKAVETVAQHLGISRASAYLYVKE", "soluble fraction (log2)": -1.52}
{"sequence": "HMNGVPDMSPVPEGARNSTLHAWAFGRLKNHPDNETGIREDLFRRGHASGLQDAELDQIWKSIKRTL", "soluble fraction (log2)": 0.00545}
{"sequence": "HMNGVSNETLIQKSALYEELNQPDLALKMINTALKKDSVNIEILHRLVTLLMSQEKNEEAILYNQKIIDH", "soluble fraction (log2)": 0.0902}
{"sequence": "HMNHSITLTERKNLLITGVKKIENFDKEEFLIETTMGFLVVKGDGLELIKLDTISGNVSIKGIVNGFTYID", "soluble fraction (log2)": 0.15}
{"sequence": "HMNIAAVIGQTGVLQDDLKAGEQGTVKADNKLWTAVLAEGEEAVKKEERVDIVAVEGVKLIVRRNI", "soluble fraction (log2)": 0.663}
{"sequence": "HMNIDEIFLTKNEIYFSFEYQKKSQLDRYSKIISLDHRIDKNTAYAYANKKQFLNFINLNIDYKIIDNSF", "soluble fraction (log2)": -2.87}
{"sequence": "HMNIDEIIGKKAVVIESIDNLQGTGKVRYQGMEWTARAEEENDRIEKDAEVEIIAVKGVKLIVKMK", "soluble fraction (log2)": -0.384}
{"sequence": "HMNIDNTWQPSEDVVEILTRSGINEDFINELIPEFIVYWTERPGTLVSYNSKFIEHVRLKWAQHSAEI", "soluble fraction (log2)": -0.375}
{"sequence": "HMNIDVAAEKQQLGPNADQIVKGTVTWMQGLVAKGIWSETDFEEGKIFTATADGINAINKIRRYYGEQT", "soluble fraction (log2)": 0.0956}
{"sequence": "HMNIEDFKDKVKELKQYTYQELVEDVKLKTDRADVILPASKIYLEAMQQAKVDSIIVPKVGLAEGVAR", "soluble fraction (log2)": -0.012}
{"sequence": "HMNIEEQVVAEVLVKDFMKQLTPRDIHILELRKNGYTYQEIAGQLGYHTHSAVKKRVDRLAEQWLAYTQGH", "soluble fraction (log2)": -2.26}
{"sequence": "HMNIFAHQIGKLRTERHLSQTDVAKRLYVSRQAVSKWENGDAEPSLDNLIALAKLFNVSLDNLITGQ", "soluble fraction (log2)": -1.78}
{"sequence": "HMNIGVEQIEQMERGALITLWQELIDKPLPRHMSIVFLRQVLAFEVQSKQNGGLPRGFITLLNKQAD", "soluble fraction (log2)": -0.826}
{"sequence": "HMNIKITKSKNSEHYSIIYNTKINGKRTSKIYENIGNFEKLKLRAGEQEPIEWLKNYVSELNKKQKEDT", "soluble fraction (log2)": 0.11}
{"sequence": "HMNIKYDFPTNSPLEMMRNLFDSNSQIINDLKDGFAMANSLNEQGLANFFAERIDKHQFWSWQLSASL", "soluble fraction (log2)": -0.201}
{"sequence": "HMNILDPTVMKNILDKNHEEFIAIYESAPLGQKTIINSMVFDKRLNGENVDANILMYLQNKTNIDYINIEP", "soluble fraction (log2)": -0.536}
{"sequence": "HMNILNYIIENENQEVRVDKFLSDTIEDMSRSSVASIIEDGGLLVNDKLQNKKYKLKIGDKVQFTVPDPV", "soluble fraction (log2)": 0.0982}
{"sequence": "HMNILVAISDTGEIWINKRRVDARAVQANIERLHAENPQGTVVIQADKQATTETLIKVMDASRAAGVFDVS", "soluble fraction (log2)": -0.691}
{"sequence": "HMNINLDINTYTVKELEKLLKLEVPYSDNNVFEKKNLMVKMIQTSTIAETKKEELYIFLDNIYNRLTNNLE", "soluble fraction (log2)": -1.59}
{"sequence": "HMNISLGALVTITDQKGRSHTVTLESGKQFFTNHGSINHDEIIKAGEGGVVASSSGMLYTIFTP", "soluble fraction (log2)": -0.924}
{"sequence": "HMNISRESLIGQILATLNKNPEEGFNYKQIAKRLNITDSPGRQMISDLLRELSKHGSLQEISHGKYKIKV", "soluble fraction (log2)": -0.237}
{"sequence": "HMNITHEINVKSKSKIDFLENNKNLAQFFLTKNPNQFNYNLVFSDKSELNIIKEKIESHKDIEDIDIRYG", "soluble fraction (log2)": -0.0863}
{"sequence": "HMNIVINVDTPTFEQMKATYQAPGTLPAGASFHAKLKGVTVTGYTKSHKVMFQGALANQEAARWQ", "soluble fraction (log2)": -1.88}
{"sequence": "HMNIYFNIEDAVANAVVENGKMSAAIYEKNVDTGEVAKLAEVSMPVMGGNINITKTLLTKALISQLP", "soluble fraction (log2)": -0.71}
{"sequence": "HMNKAYLTVADMKKDKSLKNGDVVRTLGYYGYNDGDGAVYQIKDSHPEDYHIRLDNGLDAEQINY", "soluble fraction (log2)": 0.185}
{"sequence": "HMNKEHINLDSSKFLSLLNKTKISMSNDETRHYLNGIYIHPTVSNKSSYLTGVATDSHRLSSSSIPVD", "soluble fraction (log2)": -0.366}
{"sequence": "HMNKMIIELGEKLKALRTENHLRQDQVARLVNVEKSSISMYETGMRQPSYTTLVRLADVFNVTTDYLLGRK", "soluble fraction (log2)": -2.37}
{"sequence": "HMNKPTSMYKLRLLLKHYHAGASKRWMADVLDISRSTLNVYLARIESLNLAFEEWEALSDLEVSRLLINP", "soluble fraction (log2)": -3.22}
{"sequence": "HMNKVAQFYRELVSTLSERLRNGERDIDALVEQARVRISQSGELTQSEIENVIRAVRRDLEEFALSYEE", "soluble fraction (log2)": -0.0274}
{"sequence": "HMNLAISAYQQLKSDIIRGVYAPGEKLLMSRLKVRYGLGIGPMREALSQLVSEHLVTAASQRGYRVAGM", "soluble fraction (log2)": -1.79}
{"sequence": "HMNLAPLLTEYVQINFRRASEMKTYLEQANLISERGFLLADDQTNILMVRETGASIEEIRRTLNRF", "soluble fraction (log2)": -1.92}
{"sequence": "HMNLFKAPMPGLIRTIVVAEGQEVKKGDVILILEAMKMENALKSPADLVVKSIKVQQGQAVEKNQLLIEF", "soluble fraction (log2)": -2.44}
{"sequence": "HMNLGNLLKIYRKNSLLTQQQVADALNINRTTYTYYETGKTEPSIDTLHKLIKIFGITYDDLL", "soluble fraction (log2)": -2.88}
{"sequence": "HMNLKDINLNVRHYKIIDFVREHGYASIETLTRQFGVSAQTVRRDIIYLDNQAVLKRHHGGVGTLPG", "soluble fraction (log2)": -1.97}
{"sequence": "HMNLPTSGVDALTPAERRVARMAGDGQSNREIAQTLFVTRKTVEIHLTSVYRKLGIASRAELSARL", "soluble fraction (log2)": -2.68}
{"sequence": "HMNLQGIISQKAIVTQTIEPYETGVAKLNGEEWTAMSKDETRIEAGKLVEVVAIEGVKLIVKEVS", "soluble fraction (log2)": -0.311}
{"sequence": "HMNLVELKHAEEFNTLIIQDIGGRMKPAHTLASELVRKVFHNDDFNGIDPRKVFLSIIENSKVWFNVPFI", "soluble fraction (log2)": 0.0116}
{"sequence": "HMNLYENLATHVKNAIRQGVYQPGDRLPSVRRLSEQHRVSQNTAVSAYRLLESHGWLEARPQSGFFARHP", "soluble fraction (log2)": -1.42}
{"sequence": "HMNLYERFPIHELWKETFNETLDEEEHITFITSEFKPENIVLGQGFIAAPSKKDAVDWLKVIRTVLIFYDS", "soluble fraction (log2)": -2.37}
{"sequence": "HMNMANFARIRLILELHDRGMSQDEISRSRHMSRSTITTVLRTARKKGITYAGIRKLDDAALQKLFFPDR", "soluble fraction (log2)": -4.02}
